# B1: wild type (WT) ADAM33: ADAM33 protein fragment with pre, pro and wild type catalytic domain and Ser-Gly-His6 Tag expressed in Drosophila S2 cells (SEQ ID NO: 2) (protein)
# chain: MKLCILLAVVAFVGLSLGRSPWPGVPLQGHIPGQPVTPHWVLDGQPWRTVSLEEPVSKPDMGLVALEAEGQELLLELEKNHRLLAPGYIETHYGPDGQPVVLAPNHTDHCHYQGRVRGFPDSWVVLCTCSGMSGLITLSRNASYYLRPWPPRGSKDFSTHEIFRMEQLLTWKGTCGHRDPGNKAGMTSLPGGPQSRGRREARRTRKYLELYIVADHTLFLTRHRNLNHTKQRLLEVANYVDQLLRTLDIQVALTGLEVWTERDRSRVTQDANATLWAFLQWRRGLWAQRPHDSAQLLTGRAFQGATVGLAPVEGMCRAESSGGVSTDHSELPIGAAATMAHEIGHSLGLSHDPDGCCVEAAAESGGCVMAAATGHPFPRVFSACSRRQLRAFFRKGGGACLSNAP
# modifications: Ser-Gly-His6 tag; homo sapiens
# B2: ADAM33 N231Q: modified human ADAM33 catalytic domain, Asn231 replaced by glutamine (SEQ ID NO: 8) with C-terminal Ser-Gly His6 Tag (protein)
# chain: EARRTRKYLELYIVADHTLFLTRHRNLQHTKQRLLEVANYVDQLLRTLDIQVALTGLEVWTERDRSRVTQDANATLWAFLQWRRGLWAQRPHDSAQLLTGRAFQGATVGLAPVEGMCRAESSGGVSTDHSELPIGAAATMAHEIGHSLGLSHDPDGCCVEAAAESGGCVMAAATGHPFPRVFSACSRRQLRAFFRKGGGACLSNAPSGHHHHHH
# modifications: C-terminal Ser-Gly His6 tag; homo sapiens
# How the values were obtained:
# [1] = Storage stability of purified protein (N-terminal sequencing, mass spectrometry, enzymatic assay); type: physicochemical; settings: 4° C.; expression induced with 0.5 mM CuSO4, purified as complex of pro and catalytic domains
# Protocol: The Ni-NTA column was washed with 15-20 CV of buffer C until a stable baseline was achieved, and the protein was eluted with 250 mM imidazole in buffer C. The eluted protein was concentrated to 5-15 mg/ml, and then applied to a SUPERDEX-75 gel filtration column equilibrated with buffer GF (25 mM HEPES, pH 7.5, 150 mM NaCl, 10% glycerol, 50 mM imidazole). Fractions corresponding to the monomer of ADAM33 were pooled, and diluted to 0.3 mg/ml, flash-frozen in liquid nitrogen, and stored at −80° C. […] When used for crystallography, the frozen protein was thawed on ice and concentrated to 10 mg/ml using Ultrafree®-15 Centrifugation Filter Device (Millipore, Bedford, Mass.). The thawed protein was immediately subjected to crystallization trials. Using this protocol a total of 1-9 mg of ADAM33 N231Q comprising the amino acid sequence of SEQ ID NO: 8 and SEQ ID NO: 36 (the C-Terminal Ser-Gly His6 Tag) was obtained from 1 liter of conditioned medium. 5 mM CaCl2 is preferably included throughout the purification process. It is also preferred that 5 mM CaCl2 is retained in the storage buffer.
# After designing an appropriate DNA construct, the expression of the ADAM33 catalytic domain in an eukaryotic cell line needed to be optimized. […] However, under these induction conditions, Cu^2+ readily binds to the C-terminal His6 Tag. […]
# [2] = Thermal denaturation monitored by circular dichroism (220 nm) as a function of temperature and CaCl2 concentration; type: physicochemical
# Protocol: The effect of CaCl2 on the stability of the ADAM33 N231Q catalytic domain as determined by thermal denaturation: The effect of the concentration of CaCl2 on the retention of the secondary structure of the ADAM33 N231Q catalytic domain was monitored by circular dichroism (λ220 nm) as a function of temperature. A parallel study was performed replacing the CaCl2 with NaCl to control for the effect of the corresponding increase in ionic strength. The ADAM33 N231Q catalytic domain was purified as described above and then diluted to 0.2 mg/ml. The sample was then dialyzed against 25 mM Hepes, pH 7.5, 5% glycerol overnight. The temperature dependent protein denaturation was performed using a JASCO 810 spectropolarimeter under the following conditions: • Protein concentration: 0.2 mg/ml (based on a BioRad Protein Assay) • Cell length: 0.1 cm • Monitor wavelength: 220 nm • Temperature slope: 2° C./min • Measurement range: 20-80° C.
# Therefore, greater than 10 μM CaCl2, and preferably between 0.3-100 mM CaCl2 should be included to maintain the stability of this protein.
molecule,measurement,setting,value
B1,stability of purified protein,[1],labile
B2,ΔDenaturation Temp.,[2]; CaCl2 0 mM,0.0 °C
same,Denaturation Temp.,"[2]; CaCl2 0 mM, 0.2 mg/ml protein, 25 mM Hepes pH 7.5, 5% glycerol",43.5 °C
same,Denaturation Temp.,[2]; CaCl2 0.003 mM,50.6 °C
same,ΔDenaturation Temp.,[2]; CaCl2 0.003 mM vs 0 mM,7.1 °C
same,Denaturation Temp.,[2]; CaCl2 0.03 mM,52.9 °C
same,ΔDenaturation Temp.,[2]; CaCl2 0.03 mM vs 0 mM,9.4 °C
same,Denaturation Temp.,[2]; CaCl2 0.3 mM,53.9 °C
same,ΔDenaturation Temp.,[2]; CaCl2 0.3 mM vs 0 mM,10.4 °C
same,Denaturation Temp.,[2]; CaCl2 0.5 mM,56.9 °C
same,ΔDenaturation Temp.,[2]; CaCl2 0.5 mM vs 0 mM,13.4 °C
same,Denaturation Temp.,[2]; CaCl2 1.0 mM,57.9 °C
same,ΔDenaturation Temp.,[2]; CaCl2 1.0 mM vs 0 mM,14.4 °C
same,Denaturation Temp.,[2]; CaCl2 2.5 mM,60.6 °C
same,ΔDenaturation Temp.,[2]; CaCl2 2.5 mM vs 0 mM,17.1 °C
same,Denaturation Temp.,[2]; CaCl2 5.0 mM,61.5 °C
same,ΔDenaturation Temp.,[2]; CaCl2 5.0 mM vs 0 mM,18.0 °C
same,Denaturation Temp.,[2]; CaCl2 10.0 mM,63.3 °C
same,ΔDenaturation Temp.,[2]; CaCl2 10.0 mM vs 0 mM,19.8 °C
same,Denaturation Temp.,[2]; CaCl2 25.0 mM,64.6 °C
same,ΔDenaturation Temp.,[2]; CaCl2 25.0 mM vs 0 mM,21.1 °C
same,Denaturation Temp.,[2]; CaCl2 50.0 mM,65.6 °C
same,ΔDenaturation Temp.,[2]; CaCl2 50.0 mM vs 0 mM,22.1 °C
same,Denaturation Temp.,[2]; CaCl2 100.0 mM,65.2 °C
same,ΔDenaturation Temp.,[2]; CaCl2 100.0 mM vs 0 mM,21.7 °C
same,stability in the presence of CaCl2 relative to NaCl,[2]; equivalent ionic strength,significantly greater stability
